Test results: patent US20250027068

Biological target: pooled human IgG

Protein	Enzyme Activity Endpoint Assay (purified): Fab′2 [ng/µL]	Enzyme Activity Endpoint Assay (purified): Fc [ng/µL]	Enzyme Activity Endpoint Assay (purified): IgG [ng/µL]	Enzyme Activity Endpoint Assay (purified): scIgG [ng/µL]
PRT-630 (protein) MQITSVWTKGVTPLTPEQFRYNNEDVIHAPYLAHQGWYDITKAFDGKDNLLCGAATAGNMLHWWFDQNKEEIENYLKKYPEKQKIIFNNQELFDLKAAIDTKDSQTNSQLFNYFRDKAFPNLSARQLGVMPDLVLDMFINGYYLNVFKTQSTDVNRPYQDKDKRGGIFDAVFTRGDQTTLLTARHDLKNKGLNDISTIIKQELTEGRALALSHTYANVSISHVINLWGADFNAEGNLEAIYVTDSDANASIGMKKYFVGINAHGHVAISAKKIEGENIGAQVLGLFTLSSGQEIWEQLSLEHHHHHH	850	464	0	0
PRT-691 (protein) MQITTVWTKGVTPPTPEQFRYNNEDVIHAPYLPNQGWYDITKTFNGKDNLLCGAATAGNMLHWWFDQNKTEIEAYLSKYPEKQKIIFNNQELFDLRAAINTKDSQTNSQLFNYFRDKAFPNLSARQLGVMPDLVLDMFINGYYLNVFKTQSTDVNRPYQDRDKRGGIFDAVFNRGDQTTLLTARHDLKNKTLNDISTLIKQELSSGKALALSHTYANVSISHVINLWGADFNAEGNLEAIYVTDSDANASIGMKKYYVGVNAHGKVAISAKKIEGENIGAQVLGLFTLSSGKDIWQKLSLEHHHHHH	184	337	110	682
PRT-563 (protein) MANQEIRYSEATPSHITSVWTKGVTPPTQFIQNEDVLHAPYIANQGWYDITKTFNGKDDLLCGAATAGNMLHWWFDQNKTQIENYLKKHPEKQKINFNGEQMFDVKEAIDTKDSQTDSALFSYFKDKAFPYLSTKHLGVFPDHVIDMFINGYRLSLTNHGPTPVKRQTKDPRGGIFDAVFTRGDQSKLLTARHDFKEKTLNEISQLIKQELTEGKALGLSHTYANVRINHVINLWGADFNAEGNLEAIYVTDSDSNASIGMKKYYVGVNAAGKVAISAKEIEGDNIGAQVLGLFTLSTGQDIWQQTNLEHHHHHH	816	389	0	0
PRT-640 (protein) MQITSVWTKGVTPLTPEQFRYNNEDVIHAPYLAHQGWYDITKTFNGKDNLLCGAATAGNMLHWWFDQNKTEIEAYLSKHPEKQKIIFNNQELFDLKAAIDTKDSQTNSQLFNYFRDKAFPNLSARQLGVMPDLVLDMFINGYYLNVFKTQSTDVNRPYQDKDKRGGIFDAVFTRGDQTTLLTARHDLKNKGLNDISTIIKQELTEGRALALSHTYANVSISHVINLWGADFNAEGNLEAIYVTDSDADEKIGMKKYFVGINAHGHVAISAKKIEGENIGAQVLGLFTLSSGKDIWQKLSLEHHHHHH	951	507	0	0
PRT-634 (protein) MQITSVWTKGVTPLTPEQFRYNNYDVIHAPYKPNQGWYDITKAFDGKDNLLCGAATAGNMLHWWFDQNKTEIEAYLSKHPEKQKIIFNNQELFDLKAAIDTKDSQTNSQLFNYFRDKAFPNLSARQLGVMPDLVLDMFINGYYLNVFKTQSTDVNRPYQDKDKRGGIFDAVFTRGDQTTLLTARHDLKNKGLNDISTIIKQELTEGKALALSHTYANVSISHVINLWGADFNAEGNLEAIYVTDSDANASIGMKKYFVGINAHGHVAISAKKIEGENIGAQVLGLFTLSSGKDIWQKLSLEHHHHHH	755	394	0	0
PRT-665 (protein) MQITSVWTKGVTPPTPEQFRYNNEDVIHAPYLAHQGWYDITKAFDGKDNLLCGAATAGNMLHWWFDQNKTEIEAYLSKYPEKQKIIFNNQELFDLRAAINTKDSQTNSQLFNYFRDKAFPNLSARQLGVMPDLVLDMFINGYYLNVFKTQSTDVNRPYQDKDKRGGIFDAVFTRGDQTTLLTARHDLSNKGLNDISTIIKQELTEGRALALSHTYANVSISHVINLWGADFNAEGNLEAIYVTDSDSNASIGMKKYYVGINASGHVAISAKKIEGEVIGAQVLGLFTLSSGKEIWQKLSLEHHHHHH	816	414	63	109
PRT-632 (protein) MQITSVWTYGVTPLTPEQFRYNNYEVIHAPYKEGQGWYDITKAFDGKDNLLCGAATAGNMLHWWFDQNKTEIEAYLSKHPEKQKIIFNNQELFDLKAAIDTKDSQTNSQLFNYFRDKAFPNLSARQLGVMPDLVLDMFINGYYLNVFKTQSTDVNRPYQDKDKRGGIFDAVFTRGDQTTLLTARHDLKNKGLNDISTIIKQELTEGRALALSHTYANVSISHVINLWGADFNAEGNLEAIYVTDSDANASIGMKKYFVGINAHGHVAISAKKIEGENIGAQVLGLFTLSSGKDIWQKLSLEHHHHHH	703	399	0	0
PRT-659 (protein) MQITSVWTKGVTPLTPEQFRYNNEDVIHAPYLAHQGWYDITKAFDGKDNLLCGAATAGNMLHWWFDQNKTEIEAYLSKHPEKQKIIFNNQELFDLREAINTKDDQKDSKLFNYFREKAFPNLSARQLGVMPDLVLDMFINGYYLNVFKTQSTDVNRPYQDKDKRGGIFDAVFTRGDQTTLLTARHDLKNKGLNDISTIIKQELTEGRALALSHTYANVSISHVINLWGADFNAEGNLEAIYVTDSDANASIGMKKYFVGINAHGHVAISAKKIEGENIGAQVLGLFTLSSGKDIWQKLSLEHHHHHH	946	499	0	0
PRT-615 (protein) MQITSVWTKGVTPLTPEQFRYNNEDVIHAPYLAHQGWYDITKAFDGKDNLLCGAATAGNMLHWWFDQNKTEIEAYLSKYPEKQKIIFNNQELFDLRAAINTKDSQTNSQLFNYFRDKAFPNLSARQLGVMPDLVLDMFINGYYLNVFKTQSTDVNRPYQDKDKRGGIFDAVFNRGDQTTLLTARHDLKNKGLNDISTIIKQELSSGRALALSHTYANVSISHVINLWGADFNAEGNLEAIYVTDSDANSNIGMKKYKVGINAHGHVAISAKKIEGENIGAQVLGLFTLSSGKDIWQKLSLEHHHHHH	778	441	0	0
PRT-608 (protein) MQITSVWTKGVTPLTPEQFRYNNEDVIHAPYLAHQGWYDITKAFDGKDNLLCGAATAGNMLHWWFDQNKTEIEAYLSKHPEKQKIIFNNQELFDLKAAIDTKDSQTNSQLFNYFRDKAFPNLSARQLGVMPDLVLDMFINGYYLNVFKTQSTDVNRPYQDKDKRGGIFDAVFTRGDQTTLLTARHDLKNKGLNDISTIIKQELTEGRALALSHTYANVSISHVINLWGADFNAEGNLEAIYVTDSDADEKIGMKKYFVGINAHGHVAISAKKIEGENIGAQVLGLFTLSSGKDIWQKLSLEHHHHHH	863	484	0	0
PRT-66 (protein) MANQEIRYSEVTPYHVTSVWTKGVTPPANFTQGEDVFHAPYVANQGWYDITKTFNGKDDLLCGAATAGNMLHWWFDQNKDYIKRYLEEHPEKQKINFNGEQMFDVKEAIDTKNHQLDSKLFEYFKEKAFPYLSTKHLGVFPDHVIDMFINGYRLSLTNHGPTPVKEGSKDPRGGIFDAVFTRGDQSKLLTSRHDFKEKNLKEISDLIKKELTEGKALGLSHTYANVRINHVINLWGADFDSNGNLKAIYVTDSDSNASIGMKKYFVGVNSAGKVAISAKEIKEDNIGAQVLGLFTLSTGQDSWNQTN	49	115	15	13
PRT-68 (protein) MANQEIRYSEVTPYHVTSVWTKGVTPPANFTQGEDVFHAPYVANQGWYDITKTFNGKDDLLCGAATAGNMLHWWFDQNKDQIKRYLEEHPEKQKINFNGEQMFDVKEAIDTKNHQLDSKLFEYFKEKAFPYLSTKHLGVFPDHVIDMFINGYRLSLTNHGPTPVKEGSKDPRGGIFDDVFTRGDQSKLLTSRHDFKEKNLKEISDLIKKELTEGKALGLSHTYANVRINHVINLWGADFDSNGNLKAIYVTDSDSNASIGMKKYFVGVNSAGKVAISAKEIKEDNIGAQVLGLFTLSTGQDSWNQTN	51	133	16	16
PRT-67 (protein) MANQEIRYSEVTPYHVTSVWTKGVTPPANFTQGEDVFHAPYVANQGWYDINKTFNGKDDLLCGAATAGNMLHWWFDQNKDQIKRYLEEHPEKQKINFNGEQMFDVKEAIDTKNHQLDSKLFEYFKEKAFPYLSTKHLGVFPDHVIDMFINGYRLSLTNHGPTPVKEGSKDPRGGIFDAVFTRGDQSKLLTSRHDFKEKNLKEISDLIKKELTEGKALGLSHTYANVRINHVINLWGADFDSNGNLKAIYVTDSDSNASIGMKKYFVGVNSAGKVAISAKEIKEDNIGAQVLGLFTLSTGQDSWNQTN	10	78	23	61
PRT-69 (protein) MANQEIRYSEVTPYHVTSVWTKGVTPPANFTQGEDVFHAPYVANQGWYDITKTFNGKDDLLCGAATAGNMLHWWFDQNKDQIKRYLEEHPEKQKINFNGEQMFDVKEAIDTKNDQLDSKLFEYFKEKAFPYLSTKHLGVFPDHVIDMFINGYRLSLTNHGPTPVKEGSKDPRGGIFDAVFTRGDQSKLLTSRHDFKEKNLKEISDLIKKELTEGKALGLSHTYANVRINHVINLWGADFDSNGNLKAIYVTDSDSNASIGMKKYFVGVNSAGKVAISAKEIKEDNIGAQVLGLFTLSTGQDSWNQTN	45	121	14	14
